Data as given in patent US20180355043A1.

Tests used:
Assay in all cases: MSD ECL; antigen coated; protocol of Example 3
[1] = target: DR4G145 (HLA DQB2:01, peptide CLIP) (human)
[2] = target: DR4G96: Human HLA-DRA1*01:02/DRB1*01:01 ECD with CLIP peptide (human)
[3] = target: DR4G146 (HLA DQB2:01, peptide CLIP) (human)
[4] = target: DR4G115 (HLA DPB4:01, peptide LCAP) (human)
[5] = target: DR4G92: Human HLA-DRA1*01:02/DRB1*04:01 ECD with collagen II peptide CII_257-273 (human)
[6] = target: DR4G112: Human HLA-DQA1*01:02/DQB1*06:02 ECD with PLP peptide PLP_178-186 (human)
[7] = target: DR4G98: Human HLA-DRA1*01:02/DRB1*04:02 ECD with collagen II peptide CII_1236-1249 (human)
[8] = target: DR4G142: Human HLA-DRA1*01:02/DRB1*03:01 ECD_VimentineL70A (human)
[9] = target: DR4G110: Human HLA-DRA1*01:02/DRB1*04:01 ECD with aggrecan peptide N1 (human)
[10] = target: DR4G102: Human HLA-DRA1*01:02/DRB1*01:01 ECD with collagen II peptide CII_257-273 (human)
[11] = target: DR4G101: Human HLA-DRA1*01:02/DRB1*04:02 ECD with collagen II peptide CII_257-273 (human)
[12] = target: DR4G86: Human HLA-DRA1*01:02/DRB1*04:01 ECD with CLIP peptide (human)
[13] = target: DR4G97: Human HLA-DRA1*01:02/DRB1*15:01 ECD with collagen II peptide CII_1236-1249 (human)
[14] = target: DR4G99: Human HLA-DRA1*01:02/DRB1*01:01 ECD with collagen peptide CII_1236-1249 (human)
[15] = target: DR4G117: Human HLA-DRA1*01:02/DRB1*03:01 ECD with Collagen II peptide CII_1236-1249 (human)
[16] = target: DR4G143: Human HLA-DRA1*01:02/DRB1*04:01 ECD_VimentineL70A (human)
[17] = target: DR4G107 (HLA DPB4:01, peptide CLIP) (human)

Sequence of DR4G115 (HLA DPB4:01, peptide LCAP) (human) (P20036 29-222, chain 1 of 2): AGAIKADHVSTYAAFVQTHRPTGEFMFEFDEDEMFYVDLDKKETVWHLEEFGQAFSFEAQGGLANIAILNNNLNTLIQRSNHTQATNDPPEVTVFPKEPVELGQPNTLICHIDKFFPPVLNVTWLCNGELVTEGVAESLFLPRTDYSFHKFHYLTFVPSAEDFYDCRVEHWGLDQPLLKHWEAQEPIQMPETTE
Sequence of DR4G115 (HLA DPB4:01, peptide LCAP) (human) (P04440 30-225, chain 2 of 2, further chain): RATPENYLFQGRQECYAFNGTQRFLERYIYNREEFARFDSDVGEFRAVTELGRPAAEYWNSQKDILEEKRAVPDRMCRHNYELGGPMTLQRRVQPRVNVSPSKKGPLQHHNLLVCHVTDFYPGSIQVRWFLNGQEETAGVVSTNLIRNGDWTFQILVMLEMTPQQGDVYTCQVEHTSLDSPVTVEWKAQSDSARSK

Isotype control (antibody)
ECL signal [1]: 2780 ECL | ECL signal [2]: 781 ECL | ECL signal [3]: 1470 ECL | ECL signal [4]: 91 ECL | ECL signal [5]: 486 ECL | ECL signal [6]: 250 ECL | ECL signal [7]: 613 ECL | ECL signal [8]: 2220 ECL | ECL signal [9]: 1030 ECL | ECL signal [10]: 392 ECL | ECL signal [11]: 1250 ECL | ECL signal [12]: 335 ECL | ECL signal [13]: 393 ECL | ECL signal [14]: 490 ECL | ECL signal [15]: 603 ECL | ECL signal [16]: 410 ECL | ECL signal [17]: 153 ECL
